# Measured values taken from patent publication US6403769 (US Dept. of Health and Human Services, dated 2002).
# B1: bovine brain aFGF (ligand, UniProt P03968 16-155, looked up)
# chain: FNLPLGNYKKPKLLYCSNGGYFLRILPDGTVDGTKDRSDQHIQLQLCAESIGEVYIKSTETGQFLAMDTDGLLYGSQTPNEECLFLERLEENHYNTYISKKHAEKHWFVGLKKNGRSKLGPRTHFGQKAILFLPLPVSSD
# notes: also called radioiodinated bovine fibroblast growth factor (aFGF); 125I-aFGF
# B2: KGF-HFc fusion protein (Fc fusion, UniProt P21781 32-194, looked up)
# chain: CNDMTPEQMATNVNCSSPERHTRSYDYMEGGDIRVRRLFCRTQWYLRIDKRGKVKGTQEMKNNYNIMEIRTVAVGIVAIKGVESEFYLAMNKEGKLYAKKECNEDCNFKELILENHYNTYASAKWTHNGGEMFVALNQKGIPVRGKKTKKEQKTAHFLPMAITVPRDCGCKPCICTVPEVSSVFIFPPKPKDVLTITLTPKVTCVVVDISKDDPEVQFSWFVDDVEVHTAQTQPREEQFNSTFRSVSELPIMHQDWLNGKEFKCRVNSAAFPAPIEKTISKTKGRPKAPQVYTIPPPKEQMAKDKVSLTCMITDFFPEDITVEWQWNGQPAENYKNTQPIMNTNGSYFVYSKLNVQKSNWEAGNTFTCSVLHEGLHNHHTEKSLSHSPGK
# notes: Disulfide-linked dimer, p94-98 nonreduced, 48 kd reduced
# B3: PDGF A-HFc fusion protein (Fc fusion)
# chain: not shown
# notes: Expressed as an 84-89 kd dimeric protein
# B4: PDGF B-HFc fusion protein (Fc fusion, UniProt P01127 82-190, looked up)
# chain: SLGSLTIAEPAMIAECKTRTEVFEISRRLIDRTNANFLVWPPCVEVQRCSGCCNNRNVQCRPTQVQLRPVQVRKIEIVRKKPIFKKATVTLEDHLACKCETVAAARPVTVPRDCGCKPCICTVPEVSSVFIFPPKPKDVLTITLTPKVTCVVVDISKDDPEVQFSWFVDDVEVHTAQTQPREEQFNSTFRSVSELPIMHQDWLNGKEFKCRVNSAAFPAPIEKTISKTKGRPKAPQVYTIPPPKEQMAKDKVSLTCMITDFFPEDITVEWQWNGQPAENYKNTQPIMNTNGSYFVYSKLNVQKSNWEAGNTFTCSVLHEGLHNHHTEKSLSHSPGK
# notes: Expressed as an 84 kd dimeric protein
# B5: keratinocyte growth factor (KGF) (ligand, human, UniProt P21781 32-194, looked up)
# chain: CNDMTPEQMATNVNCSSPERHTRSYDYMEGGDIRVRRLFCRTQWYLRIDKRGKVKGTQEMKNNYNIMEIRTVAVGIVAIKGVESEFYLAMNKEGKLYAKKECNEDCNFKELILENHYNTYASAKWTHNGGEMFVALNQKGIPVRGKKTKKEQKTAHFLPMAIT
# notes: also called recombinant human KGF; recombinant KGF
# B6: PDGF BB (ligand, UniProt P01127 82-190, looked up)
# chain: SLGSLTIAEPAMIAECKTRTEVFEISRRLIDRTNANFLVWPPCVEVQRCSGCCNNRNVQCRPTQVQLRPVQVRKIEIVRKKPIFKKATVTLEDHLACKCETVAAARPVT
# notes: also called PDGF BB protein
# Experiments:
# D2-HFc fusion protein = target: T1, D2-HFc fusion protein (mouse, UniProt P21803 22-156; P01868 98-324 = IgG part, limits assumed); test: 50% displacement of 125I-aFGF by unlabeled aFGF, fusion protein captured on Gamma Bind G (Scatchard analysis)
# T1 construct: domain: Ig-like effector domain D2;domain: hinge, CH2 and CH3 domains; Disulfide-linked dimer (55 kd reduced, 110 kd nonreduced); also called KGFR-HFc (D2)
# Description: (§1) Ey et al., Immunochem. 15: 429 (1978). […] Bovine brain aFGF was obtained from Upstate Biotechnology, Inc. (Lake Placid, N.Y.). ^125I-aFGF was prepared as described by Friesel et al., J. Biol. Chem. 261: 7581 (1986).
# (§2) Bound ligand recovered from the pellets was counted in a Beckman gamma counter. Specific binding was defined as the difference between binding in the absence or presence of excess unlabeled ligand.
# D2/3-HFc fusion protein [1] = target: T2, D2/3-HFc fusion protein (mouse, UniProt P21803 22-262; P01868 98-324 = IgG part, limits assumed); test: as above
# T2 construct: domain: Ig-like effector domains D2 and D3;domain: hinge, CH2 and CH3 domains; Secreted by NIH 3T3 transfectants as a disulfide-linked dimer (80 kd reduced, 160 kd nonreduced); Cloned into HFc-pUC 18 without the heterologous signal peptide; also called KGFR-HFc (D2/3)
# Description: as §1, §2
# [2] = target: S. aureus protein A Sepharose CL-4B (S. aureus, UniProt P38507 37-477); test: precipitation of 35S-labeled conditioned medium
# Description: Cells were incubated in the presence of radiolabeled amino acids to examine the expression of the fusion proteins. […] The immunoprecipitated proteins were then analyzed by SDS-polyacrylamide gel electrophoresis (PAGE) and immunoprecipitated species were visualized after fluorography.
# Isolated proteins were analyzed using SDS-PAGE.
# α PDGFR = target: T3, α PDGFR (UniProt P16234 24-1089, limits assumed); test: Scatchard analysis
# T3 construct: also called α PDGF receptor
# T3 sequence (P16234 24-1089 limits assumed): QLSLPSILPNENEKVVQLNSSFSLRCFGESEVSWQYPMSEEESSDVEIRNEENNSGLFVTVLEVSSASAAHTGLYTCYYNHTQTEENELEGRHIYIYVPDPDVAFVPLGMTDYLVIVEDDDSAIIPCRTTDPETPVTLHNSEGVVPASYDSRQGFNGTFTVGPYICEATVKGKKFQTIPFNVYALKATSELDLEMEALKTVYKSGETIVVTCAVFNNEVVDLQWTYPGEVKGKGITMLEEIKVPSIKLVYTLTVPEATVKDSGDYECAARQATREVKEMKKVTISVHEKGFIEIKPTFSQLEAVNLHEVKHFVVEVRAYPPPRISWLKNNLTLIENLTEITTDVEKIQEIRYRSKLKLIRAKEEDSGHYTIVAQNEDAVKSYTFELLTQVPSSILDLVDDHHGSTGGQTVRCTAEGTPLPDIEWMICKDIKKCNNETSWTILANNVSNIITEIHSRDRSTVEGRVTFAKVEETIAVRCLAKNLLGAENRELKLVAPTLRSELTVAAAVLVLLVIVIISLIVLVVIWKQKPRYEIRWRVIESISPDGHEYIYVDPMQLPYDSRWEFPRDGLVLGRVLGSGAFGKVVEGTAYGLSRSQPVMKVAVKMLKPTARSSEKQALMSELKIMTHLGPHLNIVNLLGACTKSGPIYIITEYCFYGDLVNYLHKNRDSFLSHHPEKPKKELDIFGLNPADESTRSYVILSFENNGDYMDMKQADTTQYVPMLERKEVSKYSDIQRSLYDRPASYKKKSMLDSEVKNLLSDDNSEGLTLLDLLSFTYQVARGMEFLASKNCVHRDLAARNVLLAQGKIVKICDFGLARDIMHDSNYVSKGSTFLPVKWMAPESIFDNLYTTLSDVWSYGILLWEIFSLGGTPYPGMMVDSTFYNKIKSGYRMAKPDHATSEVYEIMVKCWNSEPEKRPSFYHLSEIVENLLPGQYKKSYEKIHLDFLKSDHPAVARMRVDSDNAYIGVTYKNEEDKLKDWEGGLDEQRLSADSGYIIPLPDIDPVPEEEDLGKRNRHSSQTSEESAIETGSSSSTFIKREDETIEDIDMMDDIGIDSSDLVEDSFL
# β PDGFR = target: T4, β PDGFR (UniProt P09619 33-1106, limits assumed); test: Scatchard analysis
# T4 construct: also called β PDGF receptor
# T4 sequence (P09619 33-1106 limits assumed): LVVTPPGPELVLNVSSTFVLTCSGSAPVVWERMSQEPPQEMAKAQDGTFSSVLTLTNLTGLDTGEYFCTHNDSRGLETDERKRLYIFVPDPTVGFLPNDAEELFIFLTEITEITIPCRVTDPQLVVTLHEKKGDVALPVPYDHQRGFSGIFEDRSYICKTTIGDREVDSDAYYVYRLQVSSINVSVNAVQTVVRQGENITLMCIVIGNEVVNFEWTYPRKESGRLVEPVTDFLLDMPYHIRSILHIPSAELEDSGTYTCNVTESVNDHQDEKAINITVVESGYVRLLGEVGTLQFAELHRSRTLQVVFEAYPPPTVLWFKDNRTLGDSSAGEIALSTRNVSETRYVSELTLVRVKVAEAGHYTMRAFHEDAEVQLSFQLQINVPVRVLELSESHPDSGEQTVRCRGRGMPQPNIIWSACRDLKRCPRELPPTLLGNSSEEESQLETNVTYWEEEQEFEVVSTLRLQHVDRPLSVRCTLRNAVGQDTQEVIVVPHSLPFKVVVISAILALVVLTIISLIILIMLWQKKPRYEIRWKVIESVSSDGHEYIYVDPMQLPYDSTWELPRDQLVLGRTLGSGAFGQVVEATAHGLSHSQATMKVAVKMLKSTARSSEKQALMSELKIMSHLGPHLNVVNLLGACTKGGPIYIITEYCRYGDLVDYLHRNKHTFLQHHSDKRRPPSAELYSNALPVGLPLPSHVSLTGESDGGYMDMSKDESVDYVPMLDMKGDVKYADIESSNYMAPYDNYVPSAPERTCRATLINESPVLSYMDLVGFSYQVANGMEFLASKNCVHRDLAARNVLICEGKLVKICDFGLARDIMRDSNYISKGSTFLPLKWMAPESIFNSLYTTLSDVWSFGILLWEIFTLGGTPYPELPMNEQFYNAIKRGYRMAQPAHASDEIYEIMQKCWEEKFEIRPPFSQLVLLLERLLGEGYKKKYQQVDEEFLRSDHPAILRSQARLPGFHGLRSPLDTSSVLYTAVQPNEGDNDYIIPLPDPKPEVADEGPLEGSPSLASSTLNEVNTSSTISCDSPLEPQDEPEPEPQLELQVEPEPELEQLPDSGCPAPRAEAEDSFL
# immunoglobulin HFc [3] = target: T5, immunoglobulin HFc (mouse, UniProt P01868 98-324 = IgG part); test: immunohistochemistry on normal human skin
# T5 construct: domain: hinge, CH2 and CH3 domains; Control without a nonantibody portion; also called the HFc portion of IgG; control immunoglobulin HFc
# D2/3-HFc fusion protein [4] = target: T2, D2/3-HFc fusion protein; test: 50% displacement of 125I-KGF by unlabeled KGF, fusion protein captured on Gamma Bind G (Scatchard analysis)
# Description: as §1, §2
# The dissociation constant for each fusion protein was determined by measuring the concentrations of unlabeled ligand required for 50% displacement of radiolabeled ligand.
# immunoglobulin HFc [5] = target: T5, immunoglobulin HFc; test: ELISA-like assay, 10 ng PDGF BB immobilized
# Description: After a two hour incubation, wells were washed, and alkaline phosphatase substrate was added to the wells in 100 mM sodium bicarbonate (pH 9.8)-1 mM magnesium chloride. After another incubation, the presence of the product of the chromogenic substrate was measured at 405 nm using an ELISA reader.
binder,measurement,setting,value
B1,Kd,D2-HFc fusion protein,0.96 nM
same,Kd,D2/3-HFc fusion protein [1],0.52 nM
B2,binding result,[2],binds
B3,Kd,α PDGFR,1.3 nM
same,binding result,β PDGFR,no binding
B4,Kd,α PDGFR,3.2 nM
same,Kd,β PDGFR,1.4 nM
B5,binding result,immunoglobulin HFc [3],no binding
same,Kd,D2/3-HFc fusion protein [4],0.12 nM
B6,binding result,immunoglobulin HFc [5],no binding
